Test results taken from the nanobody polyreactivity screen of Harvey et al. (2022).

Test: yeast display, Sf9 membrane polyspecificity reagent, FACS + sequencing; frameworks hold sequencing errors
Procedure, shortened: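 Galactose induction of a Saccharomyces cerevisiae BJ5465 synthetic nanobody display library ran 36–48 hours. The cells were then stained for 1 hour at 4 °C with 10% biotinylated, detergent-solubilized Sf9 membrane reagent, pulled down on streptavidin microbeads and FACS-sorted into low and high (top ~1%) gates on expression and reagent-binding fluorescence. Labels for polyreactivity follow the gate of origin.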

| Sequence | polyreactivity (PSR sort gate) |
| --- | --- |
| QVQLVESGGGLVQAGGSLRLSCAASGRTFWPYAMGWYRQAPGKERELLAAITSDGSTTYADSVKGRFTISRDNAKNTVYLQMNSLTPEDTAVYYCAAYGYYYYQTIPMDYWGQGTQVTVSS | low polyreactivity |
| QVQLVESGGGLVQAGGSLRLSCAASGRTFWQYSMGWYRQAPGKERELVAAITSSGGSTYYADSVKGRFTISRDNAKNTVYLQMNSLKPEDTAVYYCAADTRYYRYYYWGQGTQVTVSS | high polyreactivity |
| QVQLVESGGGLVQAGGSLRLSCAASGRTFWRYAMGWYRQAPGKERELVAAISVSGGTTYYADSVKGRFTISRDNAKNTVYLQMNSLKPEDTAVYYCAARYGSIYSILYYGFDYWGQGTQVTVSS | high polyreactivity |
| QVQLVESGGGLVQAGGSLRLSCAASGRTFWRYAMGWYRQAPGKERELVAGITSRGGSTYYADSVKGRFTISRDNAKNTVYLQMNSLKPEDTAVYYCNRRSQVHSHSKHDYWGQGTQVTVSS | low polyreactivity |
| QVQLVESGGGLVQAGGSLRLSCAASGRTFWRYAMGWYRQAPGKERELVATISSGGSTNYADSVKGRFTISRDNAKNTVYLQMNSLKPEDTAVYYCNAEYSYYDLLAYDYWGQGTQVTVSS | low polyreactivity |
| QVQLVESGGGLVQAGGSLRLSCAASGRTFWSNAMGWSRQAPGKERELVAAITWSGGSTSYADSVKGRFTISRDNAKNTVYLQMNSLKTEDTAVYYCAAGKGVELAKLDYWGQGTQVTVSS | low polyreactivity |
| QVQLVESGGGLVQAGGSLRLSCAASGRTFWSYAMGWYRQAPGKERELVATITGRGGSTYYADSVKGRFTISRDNAKNTVYLQMNSLKPEDTAVYYCARSQYSRSPSRMGYWGQGTQVTVSS | high polyreactivity |
| QVQLVESGGGLVQAGGSLRLSCAASGRTFWTNAMGWYRQAPGKERELVAAITKSGGRTYYADSVKGRFTISRDNAKNTVYLQMNRLKPEDTAVYYCAAYSQGEGGYWGQGTQVTVSS | high polyreactivity |
| QVQLVESGGGLVQAGGSLRLSCAASGRTFWTNAMGWYRQAPGKERELVASINWSGGGTYYADSVKGRFTISRDNAKNTVYLQMNSLKPEDTAVYYCNVYSNPEKEYEYWGQGTQVTVSS | low polyreactivity |
| QVQLVESGGGLVQAGGSLRLSCAASGRTFWVNAMGWYRQAPGKERELVAAITSSVSSTYYADSVKGRFTISRDNAKNTVYLQMNSLKPEDTAVYYCAAGVGRGMYYWGQGTQVTVSS | low polyreactivity |
| QVQLVESGGGLVQAGGSLRLSCAASGRTFWVYAMGWYRQAPGKERELVAAINNGGSTTYADSVKGRFTISRDNAKNTVYLQMNSLKPEDTAVYYCAADSVKQVRYGNVGHDYWGQGTQVTVSS | low polyreactivity |
| QVQLVESGGGLVQAGGSLRLSCAASGRTFWVYAMGWYRQAPGKERELVAAIRRGGITNYADSVKGRFTISRDNAKNTVYLQMNSLKPEDTAVYYCATDNYGYLTRYYYWGQGTQVTVSS | low polyreactivity |
| QVQLVESGGGLVQAGGSLRLSCAASGRTFWVYAMGWYRQAPGKERELVAAISLSGVSTYYADSVKGRFTISRDNAKNTVYLQMNSLKPDDTAVYYCAAPLIYTPLKYHYWGQGTQVTVSS | low polyreactivity |
| QVQLVESGGGLVQAGGSLRLSCAASGRTFWVYAMGWYRQAPGKERELVAGISSGASTYYADSVKGRFTISRDNAKNTVYLQMNSLKPEDTAVYYCAAPYYRLTGWSRYDYWGQGTQVTVSS | high polyreactivity |
| QVQLVESGGGLVQAGGSLRLSCAASGRTFWWYAMGWYRQAPGKEREFVAAISQRGTSTYYADSVKGRFTISRDNAKNTVYLQMNSLKPEDTAVYYCAAPLYRRWEVTYDYWGQGTQVTVSS | high polyreactivity |
| QVQLVESGGGLVQAGGSLRLSCAASGRTFWYNAMGWYRQAPGKEREFVAAITSSGGSTYYADSVKGRFTISRDNAKHTVFLQMNSLKPEDTAVYYCNKRPGPYKWPPRHDYWGQGTQVTVSS | low polyreactivity |
| QVQLVESGGGLVQAGGSLRLSCAASGRTFWYNAMGWYRQAPGKERELVAAISSTGGRTYYADSVKGRFTISRDNAKNTVYLQMNSLKPEDTAVYYCAKYPSKSYVPGDYWGQGTQVTVSS | low polyreactivity |
| QVQLVESGGGLVQAGGSLRLSCAASGRTFWYYAMGWYRHAPGKERELVAAITSGGSTNYADSVKGRFTISRDNAKNTVSLQMNSLKPEDTAVYYCAKLFRQRRYWDWYDYWGQGTQVTVSS | high polyreactivity |
| QVQLVESGGGLVQAGGSLRLSCAASGRTFWYYAMGWYRQAPGKAREWVATISYRGGSTYYADSVKGRFTISRDNAKNTVNLQMNSLKPEDTAVYYCAAKQWWGGRPKVDYWGQGTQVTVSS | high polyreactivity |
| QVQLVESGGGLVQAGGSLRLSCAASGRTFWYYDKGWYRQAPGKERELVAAITNGDRTYYADSVKGRFTISRDNAKNTVYLQMNSLKPEDTAVYYCAKETWGTRHDYWGQGTQVTVSS | high polyreactivity |
| QVQLVESGGGLVQAGGSLRLSCAASGRTFWYYGMGWYRQAPGKERELVAAISRSGGRTSYADSVKGRFTISRDNAKNTVYLQMNSLKPEDTAVYYCATDGYYRYGYWGQGTQVTVSS | high polyreactivity |

| Sequence | polyreactivity (PSR sort gate) |
| --- | --- |
| QVQLVESGGGLVQAGGSLRLSCAASGRTFWYYTMGWYRQAPGKERELVAAISSGGRTNYADSVKGRFTISRDNAKNTVYLQMNSLKPEYTAVYYCATSRYYKYVERDYWGQGTQVTVSS | high polyreactivity |
| QVQLVESGGGLVQAGGSLRLSCAASGRTFWYYTMGWYRQAPGKERELVAGITGTGGSTYYADSVKGRFTISRDNAKNTVYLQMNSLKPEDTAVYYCNALRRSQRYWDPYGYDYWGQGTQVTVSS | high polyreactivity |
| QVQLVESGGGLVQAGGSLRLSCAASGRTFYANAMGWYRQAPGKERELVASITTSGGTYYADSVKGRFTISRDNAKNTVYLQMNSLKPEDTAVYYCAAEVYRSIGYDYWGQGTQVTVSS | low polyreactivity |
| QVQLVESGGGLVQAGGSLRLSCAASGRTFYANTMGWYRQAPGKERELVAAITVRGGTTFYADSVKGRFTISRDNAKNTVYLQMNSLKPEDTAVYYCAAYGYRYSHEYYYWGQGTQVTVSS | high polyreactivity |
| QVQLVESGGGLVQAGGSLRLSCAASGRTFYAYAMGWYRQAPGKERELVAAITSGASTYYADSVKGRFTISRDNAKNTVYLQMFSLKPEDTAVYYCNAEYYEGYIGVPGSFWPYEYWGQGTQVTVSS | low polyreactivity |
| QVQLVESGGGLVQAGGSLRLSCAASGRTFYAYDMGWYRQAPGKERELVAAINSGDRTNYADSVKGRFTISRDNAKNTDYLQMNSLKPEDTAVYYCAADWYTPQGVGLDYWGQGTQVTVSS | low polyreactivity |
| QVQLVESGGGLVQAGGSLRLSCAASGRTFYAYTMGWYRTAPGKERELVAAITRRGGSTYYADSVKGRFTISRDNAKNTVYLQMNSLKPEDTAVYYCAASYSHRNYGLTYDYWGQGTQVTVSS | high polyreactivity |
| QVQLVESGGGLVQAGGSLRLSCAASGRTFYDNAMGWYRQAPGKERELVAVISRSGSTYYADSVKGRFTISRDNAKNTVYLQMNSLKPEDTAVYYCARRGVWGVTYSRLYHWGQGTLVTVSS | high polyreactivity |
| QVQLVESGGGLVQAGGSLRLSCAASGRTFYDYTMGRYRQAPGKERELVAAISQRGGSTYYADSVKGRFTISRDNAKNTVYLQMNSLKPEDTAVYYCAARTSYSGNKYYYWGQGTQVTVSS | high polyreactivity |
| QVQLVESGGGLVQAGGSLRLSCAASGRTFYDYTMGWYRQAPGKERELVAVISKRGGSTYYADSVKGRFTISRDNAKNTVYLQMNSLKPEDTAVYYCAAKSGRNVYQKVDYWGQGTQVTVSS | high polyreactivity |
| QVQLVESGGGLVQAGGSLRLSCAASGRTFYFNAMGWYRQAPGKERELVAAITFSGGSTNYADSVKGRFTISRDNAKNTVYLQMNSLKPEDTAVYYCAAPKYLGTDEYDYWGQGTQVTVSS | low polyreactivity |
| QVQLVESGGGLVQAGGSLRLSCAASGRTFYFYAMGWYRQAPGKERELVAAIDFSGDSTYYADSVKGRFTISRDNAKNTVYLQMNSLKPEDTAVYYCAAEIYIGEQPYDYWGQGTQVTVSS | low polyreactivity |
| QVQLVESGGGLVQAGGSLRLSCAASGRTFYFYAMGWYRQAPGKERELVADIRGITGSTYYADSVKGRFTISRDNAKNTVYLQMNSLKPEDTAVYYCAADQYLGRAWRGRGYYWGQGTQVTVSS | high polyreactivity |
| QVQLVESGGGLVQAGGSLRLSCAASGRTFYFYTMGWYRQAPGIERELVATIRWSAGSTYSADSVKGRFTISRDNAKNTVYLQMTSLKPEDTAVYYCNADPYVYSSWQYGYWGQGTQVTVSS | high polyreactivity |
| QVQLVESGGGLVQAGGSLRLSCAASGRTFYFYTMGWYRQAPGKERELVAAITSGGSTNYADSVKGRFTISRDNAKNTVYLQMNSLKPEDTAVYYCAAIYYRVYGYGLRMYYWGQGTQVTVSS | high polyreactivity |
| QVQLVESGGGLVQAGGSLRLSCAASGRTFYFYVMGWYRQAPGKERELVARISYSDGSTYYADSVKGRFTISRDNAKNTVYLQMNSLKPEDTAVYYCNAYDPYYGRRYDYWGQGTQVTVSS | low polyreactivity |
| QVQLVESGGGLVQAGGSLRLSCAASGRTFYGNAIAWYRQAPGKERELVAAINRGGNTNYADSVKGRFTISRDNAKNTVYLQMNSLKPEDTAVYYCAARPYYRYFEYWGQGTQVTVSS | high polyreactivity |
| QVQLVESGGGLVQAGGSLRLSCAASGRTFYGNAMGWYRQAPGKERELVASITRRGGITYYADSVKGRFTISRDNAKNTVYLQMNSLKPEDTAVYYCAKAQLGPWSFEYWGQGTQVTVSS | high polyreactivity |
| QVQLVESGGGLVQAGGSLRLSCAASGRTFYGNAMGWYRQAPGNERELVAAITTGGGNTYYADSVKGRFTISRDNAKNTVYLQMNSLKPDDTAVYYCAAYERKFYTVSRWYKLDYWGQGTQVTVSS | high polyreactivity |
| QVQLVESGGGLVQAGGSLRLSCAASGRTFYGYAKGWYIQAPGKERELVAAITRAGSTNYADSVKGRFTISRDNAKNTFYLQLNSLKPEDTAVYYCAAVRVHTDRYNYWGQGTQVTVSS | high polyreactivity |
